The source of these data is US20240044903A1 (KOZA NOVEL MATERIALS KOREA, published 2024).

Assay [1] concerns the target T1, recombinant feline TK1 (cat, UniProt P04183 2-234 (human entry)).
T1 construct: also called rFTK1; cat TK1
T1 chain: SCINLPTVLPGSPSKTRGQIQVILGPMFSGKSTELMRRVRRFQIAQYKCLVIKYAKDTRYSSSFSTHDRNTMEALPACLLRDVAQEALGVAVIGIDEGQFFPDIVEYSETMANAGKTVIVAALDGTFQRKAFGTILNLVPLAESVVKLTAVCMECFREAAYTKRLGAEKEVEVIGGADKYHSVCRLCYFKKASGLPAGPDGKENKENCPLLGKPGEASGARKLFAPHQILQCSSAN
The experiment in a line: ECL dot blot with recombinant TK1. As for the experimental part:
(§1) FIGS. 3A-3D show dot blot and Western blot analysis. Recombinant TK1 protein from canine (rCTK1), feline (rFTK1), equine (rETK1) and human (rHTK1) at concentration ranging from 20-0.6 ng was blotted. The membranes were developed with (FIG. 3A) monoclonal antibody produced against active site mAb1 ([…], diluted in TBS containing 3% of non-fat dry milk) and (FIG. 3B) monoclonal antibody produced against C terminal region mAb2 ([…], diluted in TBS containing 3% of non-fat dry milk). Recombinant dog TK1, human TK1 at concentration (10, 5 and 2.5 ng) and human TK1 positive cell extract containing 25 μg of protein (CEM TK1+) and TK1 negative cell extract containing 25 µg of protein (CEM TK1−) were electrophoresed using SDS-PAGE, followed by Western blots with […] of mAb1 diluted in TBS containing 3% of non-fat dry milk (FIG. 3C). Western blot results with […] of mAb2 diluted in TBS containing 3% of non-fat dry milk mAb 2 (FIG. 3D).
(§2) ECL dot blot assay was carried out as described previously (He et al., 2000). In brief, 3 μl of recombinant enzyme at varying concentrations ranged from 20 to 0.6 ng was applied on nitrocellulose membrane (Thermo scientific, Germany). The membrane was blocked in non-fat dry milk 10% (Bio-Rad) for 1 h and then incubated with the hybridoma supernatants or antisera and incubated for overnight at 4° C. Then after the membrane was washed and incubated with a biotinylated second antibody conjugated with horseradish peroxidase directed against mouse (GE healthcare, UK) for 1 h at room temperature. Followed by adding ECL reagent. Finally, the signal was detected by ChemiDoc Imaging System BIO-RAD.

Assay [2] deals with T2, recombinant human TK1 (human, UniProt P04183 1-234, limits assumed).
T2 construct: also called rHTK1; human recombinant TK1
T2 sequence: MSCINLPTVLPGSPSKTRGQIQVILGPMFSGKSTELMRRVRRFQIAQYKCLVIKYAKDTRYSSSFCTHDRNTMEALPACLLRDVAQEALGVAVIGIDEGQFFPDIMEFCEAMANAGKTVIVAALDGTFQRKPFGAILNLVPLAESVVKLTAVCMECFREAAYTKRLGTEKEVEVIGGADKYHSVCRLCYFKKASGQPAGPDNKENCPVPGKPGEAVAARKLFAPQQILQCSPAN
The experiment in a line: ECL dot blot with recombinant TK1. The protocol: as §1, §2

Assay [3] deals with T3, recombinant equine TK1 (horse, UniProt P04183 2-234 (human entry)).
T3 construct: also called rETK1; horse TK1
T3 chain: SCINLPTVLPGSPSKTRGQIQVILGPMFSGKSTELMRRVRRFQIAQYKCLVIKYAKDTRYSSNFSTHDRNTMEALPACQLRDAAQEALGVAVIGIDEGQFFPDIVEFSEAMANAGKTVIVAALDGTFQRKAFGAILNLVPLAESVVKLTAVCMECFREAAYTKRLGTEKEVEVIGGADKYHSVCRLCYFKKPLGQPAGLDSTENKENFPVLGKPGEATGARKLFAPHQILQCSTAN
The experiment in a line: ECL dot blot with recombinant TK1. The protocol: as §1, §2

In another assay the target is T4, recombinant canine TK1 (dog).
T4 construct: also called rCTK1; recombinant dog TK1
T4 chain: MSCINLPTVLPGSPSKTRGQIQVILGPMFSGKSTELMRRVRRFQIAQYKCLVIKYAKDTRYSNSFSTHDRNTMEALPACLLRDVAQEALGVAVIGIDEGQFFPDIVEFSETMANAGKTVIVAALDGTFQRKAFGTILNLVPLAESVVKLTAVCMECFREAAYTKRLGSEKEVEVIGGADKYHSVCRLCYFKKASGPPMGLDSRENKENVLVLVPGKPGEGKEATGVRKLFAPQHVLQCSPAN
The experiment in a line: Quartz Crystal Microbalance, antibody immobilized, recombinant canine TK1 injected. As for the experimental part:
The kinetics of the interaction between the two monoclonal antibodies, mAb1 and mAb2 (150 kDa), and canine recombinant TK1 was measured by a Quartz Crystal Microbalance (QCM) technology. To characterize binding interactions, the monoclonal antibody was immobilized on the sensor surface and the sample containing recombinant canine TK1 was injected over the sensor surface. […] The signal output is given in frequency (Hz) and is directly related to changes in mass on the sensor surface.

Assay [4] has as its target T5, human cytosolic TK1 in CEM TK1+ cell extract (human, UniProt P04183 2-234).
T5 construct: Cell extract with 25 ug (also printed as 25 pg) of protein; also called wild-type of CEM cell extract; cytosolic TK1 from human (CEM+)
T5 sequence: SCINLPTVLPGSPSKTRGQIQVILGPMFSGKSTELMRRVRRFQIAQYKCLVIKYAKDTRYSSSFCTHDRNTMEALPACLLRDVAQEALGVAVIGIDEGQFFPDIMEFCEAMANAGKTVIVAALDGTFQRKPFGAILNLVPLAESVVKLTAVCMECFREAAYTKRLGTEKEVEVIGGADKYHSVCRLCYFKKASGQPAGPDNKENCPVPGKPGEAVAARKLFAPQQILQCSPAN
The experiment in a line: Western blot after SDS-PAGE, mAb2 at 2 pg/ml as printed. The protocol:
as §1
(§3) Western blot assay: recombinant canine TK1, human recombinant TK1 ([…]) and cytosolic TK1 from human (CEM+/−) containing 25 µg of proteins were diluted in a denaturing sample buffer, boiled, and loaded onto a 12% polyacrylamide gel. The gel was electrophoresed in SDS running buffer. […]

The target of assay [5] is T1, recombinant feline TK1. The experiment in a line: ECL dot blot with recombinant TK1, 20 to 0.6 ng. As for the experimental part:
as §1, §2

For assay [6], the target named is T2, recombinant human TK1. The experiment in a line: ECL dot blot with recombinant TK1, 20 to 0.6 ng. As for the experimental part: as §1, §2
For assay [7], the target named is T3, recombinant equine TK1. The experiment in a line: ECL dot blot with recombinant TK1, 20 to 0.6 ng. As for the experimental part: as §1, §2
The target in assay [8] is T5, human cytosolic TK1 in CEM TK1+ cell …. The experiment in a line: Western blot after SDS-PAGE of denatured cell extract. The protocol:
as §1, §3

B1: CTK1-2 (mAb2) (antibody, mouse IgG2b, kappa, V domains shown)
VH: EVQLQQSGAELVKPGASVKLSCTASGFNIKDTYMHWVKQRPEQGLEWIGRIDPANGNTKYDPKFQGKATITPDTSSTTAYLQLSSLTSEDTAVYYCARNRAYYGNYYAMDYWGQGTSVTVSS
VL: DIVMTQSPSSLTVTAGEKVTMSCKSSQSLLNSRNQKNYLTWYQQKPGQPPKLLIYWASTRESGVPDRFTGSGFGTDFTLAISSVQAEDLAVYYCQNDYSYPFTFGSGTKLEIKR
notes: Mouse monoclonal IgG2b-kappa from hybridoma sub-clone 3H11, raised against the C-terminal peptide (amino acids 211-225) of dog TK1; also called 3H11
With B1, the binding result with recombinant feline TK1 [1] was “no binding (tested: 20 to 0.6 ng)”; in the assay with recombinant human TK1 [2], “no binding (tested: 20 to 0.6 ng)”; with recombinant equine TK1 [3], “no binding (tested: 20 to 0.6 ng)”; in assay [4], “no binding”. Also, in the assay with recombinant canine TK1, the dissociation constant Kd fell in the range of 200 to 400 pM. In the assay with recombinant canine TK1, the koff is 0.00011 to 0.00019 s⁻¹. Also, the kon with recombinant canine TK1 fell in the range of 500000 to 540000 M⁻¹ s⁻¹.

B2: CTK1-1 (mAb1) (antibody, mouse IgG1, kappa, V domains shown)
VH: EVKLVESGGGLVQPGDSLRLSCATSGFTFNDHYMNWVRQPPGKALEWVAFIGNKAYGYKIEYNSSVKGRFTISRDDSQSFLYLQLNTLRSEDSATYYCARDGAFIYWGQGTVVTVSA
VL: DVVMTQTPLSLPVSLGDQASISCRSSQSLVHSNGNTYLHWYLQKPGQSPKLLIYKVSNRFSGVPDRFSGSGSGSDFTLKISRVEAEDLGVYFCSQSTHIPYTFGGGTELEIRR
notes: Mouse monoclonal IgG1-kappa from hybridoma sub-clone 9C8, raised against the active site peptide (amino acids 161-183) of human TK1; also called 9C8
For B2, the binding result (in the assay with recombinant feline TK1 [5]; with recombinant human TK1 [6]; in the assay with recombinant equine TK1 [7]; in [8]) was “binds” each time. Besides, the Kd in the assay with recombinant canine TK1 was in the range of 300 to 750 pM. In addition, the koff in the assay with recombinant canine TK1 was in the range of 6.1e-05 to 0.00023 s⁻¹. Also, in the assay with recombinant canine TK1, the on-rate constant (kon) lay within 240000 to 300000 M⁻¹ s⁻¹.
